B1: Azoarcus group I ribozyme (parent)
chain: GUGCCUUGCGCCGGGAAACCACGCAAGGGAUGGUGUCAAAUUCGGCGAAACCUAAGCGCCCGCCCGGGCGUAUGGCAACGCCGAGCCAAGCUUCGGCGCCUGCGCCGAUGAAGGUGUAGAGACUAGACGGCACCCACCUAAGGCAAACGCUAUGGUGAAGGCAUAGUCCAGGGAGUGGCGAAAGUCACACAAACCGG

Variants of: B1
Test: reverse-splicing fitness (ratio to wild type); higher = more active; in vitro selection; Mg2+ level not given
Procedure, shortened: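 An in vitro group I ribozyme library with randomized positions was T7-transcribed and gel-purified. In triplicate, 10 pmol RNA in EPPS pH 7.5 was reacted with 50 pmoles of a 30-nt RNA substrate for 1 h at 37 °C across several added MgCl2 levels (1–48 mM), then stopped with EDTA. Products were reverse transcribed from a substrate-complementary primer, PCR-amplified and sequenced (HiSeq 4000). Fitness is a variant's read proportion after selection over that before, normalised to wild type.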

Row | Variant | reverse-splicing fitness
1 | GUGCCUUGCGCCGGGAAACCACGCAAGGGAUGGUGUCAAAUUCGGCGAAACCUAAGCGCCCGCCCGGGCGUAUGGCAACGCGGAGCCAAGCUUCGGCGCCUGCGCCGAUGGAGGUGUAGCGACUAGACGGCACCCACCUAAGGCAAACGGUAUGGUGAAGGCAUAGUCCAGGGAGUGGCGAAAGUCACACAAACCGG | 0.0105
2 | GUGCCUUGCGCCGGGAAACCACGCAAGGGAUGGUGUCAAAUUCGGCGAAACCUAAGCGCCCGCCCGGGCGUAUGGCAACGCGGAGCCAAGCUUCGGCGCCUGCGCCGAUGGAGGUGUAGCGACUAGACGGCACCCACCUAAGGCAAACGAUAUGGUGAAGGCAUAGUCUAGGGAGCGGCGAAAGUCACACAAACCGG | 0.0175
3 | GUGCCUUGCGCCGGGAAACCACGCAAGGGAUGGUGUCAAAUUCGGCGAAACCUAAGCGCCCGCCCGGGCGUAUGGCAACGCGGAGCCAAGCUUCGGCGCCUGCGCCGAUGGAGGUGUAGCGACUAGACGGCACCCACCUAAGGCAAACGAUAUGGUGAAGGCAUAGUCUAGGGAGGGGCGAAAGUCACACAAACCGG | 0.00877
4 | GUGCCUUGCGCCGGGAAACCACGCAAGGGAUGGUGUCAAAUUCGGCGAAACCUAAGCGCCCGCCCGGGCGUAUGGCAACGCGGAGCCAAGCUUCGGCGCCUGCGCCGAUGGAGGUGUAGCGACUAGACGGCACCCACCUAAGGCAAACGAUAUGGUGAAGGCAUAGUCUAGGGAGAGGCGAAAGUCACACAAACCGG | 0.0165
5 | GUGCCUUGCGCCGGGAAACCACGCAAGGGAUGGUGUCAAAUUCGGCGAAACCUAAGCGCCCGCCCGGGCGUAUGGCAACGCGGAGCCAAGCUUCGGCGCCUGCGCCGAUGGAGGUGUAGCGACUAGACGGCACCCACCUAAGGCAAACGGUAUGGUGAAGGCAUAGUCGAGGGAGAGGCGAAAGUCACACAAACCGG | 0.00929
6 | GUGCCUUGCGCCGGGAAACCACGCAAGGGAUGGUGUCAAAUUCGGCGAAACCUAAGCGCCCGCCCGGGCGUAUGGCAACGCGGAGCCAAGCUUCGGCGCCUGCGCCGAUGGAGGUGUAGCGACUAGACGGCACCCACCUAAGGCAAACGGUAUGGUGAAGGCAUAGUCAAGGGAGAGGCGAAAGUCACACAAACCGG | 0.0102
7 | GUGCCUUGCGCCGGGAAACCACGCAAGGGAUGGUGUCAAAUUCGGCGAAACCUAAGCGCCCGCCCGGGCGUAUGGCAACGCGGAGCCAAGCUUCGGCGCCUGCGCCGAUGGAGGUGUAGCGACUAGACGGCACCCACCUAAGGCAAACGGUAUGGUGAAGGCAUAGUCAAGGGAGCGGCGAAAGUCACACAAACCGG | 0.016
8 | GUGCCUUGCGCCGGGAAACCACGCAAGGGAUGGUGUCAAAUUCGGCGAAACCUAAGCGCCCGCCCGGGCGUAUGGCAACGCGGAGCCAAGCUUCGGCGCCUGCGCCGAUGGAGGUGUAGCGACUAGACGGCACCCACCUAAGGCAAACGGUAUGGUGAAGGCAUAGUCAAGGGAGGGGCGAAAGUCACACAAACCGG | 0.00813
9 | GUGCCUUGCGCCGGGAAACCACGCAAGGGAUGGUGUCAAAUUCGGCGAAACCUAAGCGCCCGCCCGGGCGUAUGGCAACGCGGAGCCAAGCUUCGGCGCCUGCGCCGAUGGAGGUGUAGCGACUAGACGGCACCCACCUAAGGCAAACGGUAUGGUGAAGGCAUAGUCAAGGGAGUGGCGAAAGUCACACAAACCGG | 0.00976
10 | GUGCCUUGCGCCGGGAAACCACGCAAGGGAUGGUGUCAAAUUCGGCGAAACCUAAGCGCCCGCCCGGGCGUAUGGCAACGCGGAGCCAAGCUUCGGCGCCUGCGCCGAUGGAGGUGUAGCGACUAGACGGCACCCACCUAAGGCAAACGGUAUGGUGAAGGCAUAGUCGAGGGAGUGGCGAAAGUCACACAAACCGG | 0.008
11 | GUGCCUUGCGCCGGGAAACCACGCAAGGGAUGGUGUCAAAUUCGGCGAAACCUAAGCGCCCGCCCGGGCGUAUGGCAACGCGGAGCCAAGCUUCGGCGCCUGCGCCGAUGGAGGUGUAGCGACUAGACGGCACCCACCUAAGGCAAACGAUAUGGUGAAGGCAUAGUCUAGGGAGUGGCGAAAGUCACACAAACCGG | 0.0123
12 | GUGCCUUGCGCCGGGAAACCACGCAAGGGAUGGUGUCAAAUUCGGCGAAACCUAAGCGCCCGCCCGGGCGUAUGGCAACGCGGAGCCAAGCUUCGGCGCCUGCGCCGAUGGAGGUGUAGCGACUAGACGGCACCCACCUAAGGCAAACGAUAUGGUGAAGGCAUAGUCGAGGGAGGGGCGAAAGUCACACAAACCGG | 0.00655
13 | GUGCCUUGCGCCGGGAAACCACGCAAGGGAUGGUGUCAAAUUCGGCGAAACCUAAGCGCCCGCCCGGGCGUAUGGCAACGCGGAGCCAAGCUUCGGCGCCUGCGCCGAUGGAGGUGUAGCGACUAGACGGCACCCACCUAAGGCAAACGAUAUGGUGAAGGCAUAGUCCAGGGAGGGGCGAAAGUCACACAAACCGG | 0.0141
14 | GUGCCUUGCGCCGGGAAACCACGCAAGGGAUGGUGUCAAAUUCGGCGAAACCUAAGCGCCCGCCCGGGCGUAUGGCAACGCGGAGCCAAGCUUCGGCGCCUGCGCCGAUGGAGGUGUAGCGACUAGACGGCACCCACCUAAGGCAAACGAUAUGGUGAAGGCAUAGUCCAGGGAGAGGCGAAAGUCACACAAACCGG | 0.014
15 | GUGCCUUGCGCCGGGAAACCACGCAAGGGAUGGUGUCAAAUUCGGCGAAACCUAAGCGCCCGCCCGGGCGUAUGGCAACGCGGAGCCAAGCUUCGGCGCCUGCGCCGAUGGAGGUGUAGCGACUAGACGGCACCCACCUAAGGCAAACGAUAUGGUGAAGGCAUAGUCCAGGGAGCGGCGAAAGUCACACAAACCGG | 0.0277

Source: the RNAGym collection of RNA variant scans (doi:10.1093/molbev/msab373)
